From US20250243263A1 (VOYAGER THERAPEUTICS, published 2025)
Where no end group is shown, it is not given here. [ ]: non-standard residue; d: D form. pT = C[C@@H](OP(=O)(O)O)[C@H](N)C(=O)O

Tests used:
[1] = molecular target: Tau191-214 phospho-peptide (pS202) (human, phosphoserine at S202 of tau (peptide position 12); SCBio-4PEG label); assay: one point ELISA
Description: (§1) One-point ELISA was used to determine differential binding based on the individual phosphorylation patterns of each peptide. OD values (450 nm) were collected (as shown in Table 13), where a stronger positive signal is shown as a higher OD value, which is indicative of increased binding.

[2] = molecular target: T1, Tau191-214 phospho-peptide (pS199) (human, phosphoserine at S199 of tau (peptide position 9); SCBio-4PEG label); assay: one point ELISA
T1 construct: also called pS199 peptide
Description: as §1

[3] = molecular target: Tau191-214 phospho-peptide (pS199/pT205) (human, phosphoserine at S199 and phosphothreonine at T205 of tau (peptide positions 9, 15); SCBio-4PEG label); assay: one point ELISA
Description: as §1

[4] = molecular target: Tau191-214 phospho-peptide (pT205) (human, phosphothreonine at T205 of tau (peptide position 15); SCBio-4PEG label); assay: one point ELISA
Description: as §1

[5] = molecular target: Tau191-214 phospho-peptide (pS199/pS202) (human, phosphoserine at S199 and S202 of tau (peptide positions 9, 12); SCBio-4PEG label); assay: one point ELISA
Description: as §1

[6] = molecular target: T2, pS199-old (SCBio-4PEG-Peptide, Tau191-214) (human, phosphoserine at S199 of tau by the row label; SCBio-4PEG label); assay: one point ELISA
T2 construct: The suffix -old is not explained
Description: as §1

iPHF = molecular target: T3, iPHF (UniProt P10636-8 2-441, limits assumed); assay: BLI (Octet), antibody on biosensor tip, iPHF in solution
T3 construct: also called iPHF tau
Description: Anti-human tau antibodies were assessed for affinity for iPHF by Octet (ForteBio, Menlo Park, CA) analysis. A set of recombinant human IgG1 antibodies were prepared with clone-specific variable domain pairs selected from those presented in Table 1 and human IgG1 constant domains. Candidate antibodies were immobilized on biosensor tips (ForteBio) in kinetic buffer (ForteBio). Biosensor tips were then washed before introduction of a solution of iPHF in kinetic buffer for analysis of association and dissociation with candidate antibodies.

[7] = molecular target: enriched paired helical filament tau protein (ePHF; sarkosyl insoluble tau) (human, UniProt P10636 2-758); assay: direct ELISA, ePHF coated
Description: (§2) A set of recombinant human IgG1 antibodies were prepared with clone-specific variable domain pairs selected from those presented in Table 1 and human IgG1 constant domains. These candidate antibodies were analyzed for binding to ePHF and specificity for ePHF over wild type tau by direct ELISA.
(§3) For direct ePHF and wildtype tau ELISA, plates were first coated with ePHF or wild type tau. Antigen solutions were prepared in PBS and 50 μL were pipetted into each well. Plates were covered and incubated for one hour at 37° C. or overnight at 4° C. Plates were then washed and blocked by addition of 150 μl of blocking buffer to each well and incubated one hour at room temperature. Plates were then washed before addition of serially diluted candidate antibody samples prepared in blocking buffer. Detection of candidate antibody binding was carried out by washing plates and adding a solution of enzyme-labeled secondary antibody in blocking buffer to each well. Secondary antibody binding was detected by addition of substrate and spectrophotometric analysis of resulting reaction product.

[8] = molecular target: T4, AT8 peptide (amino acids 195-215 of tau) (human, phospho-peptide, phosphorylated sites not stated in the example; immobilized on streptavidin tips); assay: BLI (Octet), phospho-peptide on streptavidin tips
T4 peptide: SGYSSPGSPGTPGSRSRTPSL
Description: Briefly, phospho-peptides were immobilized on streptavidin biosensor tips and the binding ability of each antibody was assessed using an eight-point concentration gradient.

[9] = molecular target: T5, AT270 peptide (pT181; Tau172-186) (human); assay: one point ELISA
T5 peptide: PAKTPPAPK[pT]PPSSG

[10] = molecular target: T1, Tau191-214 phospho-peptide (pS199); assay: BLI
wild type tau = molecular target: T6, wild type tau (human, UniProt P10636 2-758); assay: direct ELISA, wild type tau coated
T6 construct: also called WT
Description: as §2, §3

Tau(pS404) peptide = molecular target: T7, Tau(pS404) peptide (human, phosphoserine at S404 of tau (peptide position 18)); assay: competitive ELISA on TauS404 peptide, competitor AC04 peptide
T7 construct: also called TauS404 peptide; TauS404
T7 peptide: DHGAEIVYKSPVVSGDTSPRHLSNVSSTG

T3 sequence (P10636 other isoform, or with tags, fused parts or gaps limits assumed): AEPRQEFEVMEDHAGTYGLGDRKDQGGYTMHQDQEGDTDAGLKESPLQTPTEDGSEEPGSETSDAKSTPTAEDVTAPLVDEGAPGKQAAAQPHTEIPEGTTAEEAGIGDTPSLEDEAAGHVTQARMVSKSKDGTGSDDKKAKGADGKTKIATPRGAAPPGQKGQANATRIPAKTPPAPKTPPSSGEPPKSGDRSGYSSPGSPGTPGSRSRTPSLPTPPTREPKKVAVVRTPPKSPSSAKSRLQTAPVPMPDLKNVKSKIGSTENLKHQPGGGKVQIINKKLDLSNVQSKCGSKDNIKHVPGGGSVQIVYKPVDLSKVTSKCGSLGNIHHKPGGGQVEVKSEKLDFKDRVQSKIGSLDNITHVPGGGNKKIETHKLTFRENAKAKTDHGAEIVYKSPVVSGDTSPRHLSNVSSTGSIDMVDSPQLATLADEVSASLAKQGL
enriched paired helical filament tau protein (ePHF; sarkosyl insoluble tau), sequence (P10636 other isoform, or with tags, fused parts or gaps limits assumed): as above
T1 sequence (peptide, as listed by the source): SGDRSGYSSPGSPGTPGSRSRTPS
T6 sequence (P10636 other isoform, or with tags, fused parts or gaps limits assumed): as the sequence (P10636 other isoform, or with tags, fused parts or gaps limits assumed) above

B1: VY003 (antibody, V domains shown)
VH: EVQMVESGGGLVQPGGSLTLSCAASGFTFSSYRMNWVRQAPGKGLEWVSYISSSRSAIYYADSVKGRFTISRDNAKNSLYLQMNSLRDEDTAVYYCATLGIGYWGQGTLVTVSS
VL: DIVMTQTPLSSPVTLGQPASISCRSSQSLVHSDGNTYLSWLQQRPGQPPRLLIYKISNRFSGVPDRFSGSGAGTDFTLKITRVEAEDVGIYYCMQVTQFPRTFGQGTKVEIR
[1]
  OD (450 nm): 0.065 OD450
[2]
  OD (450 nm): 0.065 OD450
[3]
  OD (450 nm): 0.119 OD450
[4]
  OD (450 nm): 0.06 OD450
[5]
  OD (450 nm): 0.082 OD450
[6]
  OD (450 nm): 0.062 OD450
iPHF
  Kd: 4.6 nM
[7]
  EC50: 0.06 nM
[8]
  Kd: 0.0124 nM

B2: VY020 (antibody, V domains shown)
VH: EVQLVESGGGLVQPGGSLRLSCAASGFTFSSYSMNWVRQAPGKGLEWISYISSSNSTIKYADSVKGRFTISRDNAKNSLYLQMNSLRDEDTAVYYCARRSLGDYWGQGTLVIVSS
VL: EIVLTQSPATLSLSPGERATLSCRASQSVSSYLAWYLQKPGQAPRLLIYDVSNRATGIPARFSGSGSGTDFTLTISRLEPEDFAVYYCQQRRNWPYTFGQGTKLEIK
[9]
  binding result: no binding
iPHF
  Kd: 2.6 nM
[10]
  binding result: no binding
[8]
  binding result: no binding

B3: VY014 (antibody, V domains shown)
VH: EVQLVESGGGLVQPGGSLRLSCAASGFTFNNYDMHWVRQAAGKGLEWVSTIGAAGDTYYPGSVKGRFIISRENAKNSLYLQMNSLRAGDTAVYYCARAGETLEGATIGYYYGMDVWGQGTTVTVSS
VL: DILMTQSPLSLPVTPGEPASISCRSSQSLLHSNGYNYLDWYLQKPGQSPQLLIYLGSNRASGVPDRFSGSGSGTDFTLKFSRVEAEDVGLYYCMQALQIPLTFGGGTKVEIK
Wild type tau
  EC50: 0.04 nM
iPHF
  Kd: 5.3 nM
[7]
  EC50: 6.23 nM
Tau(pS404) peptide
  binding result: binds
